Data: the RNAGym collection of RNA variant scans (doi:10.1073/pnas.2313332121)

B1: TPR t1 (parent)
chain: GACCAAUCUGCCCUCAGAGCUCGAGAACAUCUUCGGAUGCAGAGGAGGCAGGCUUCGGUGGCGCGAUAGCGCCAACGUCCUCAACCUCCAAUGCAUCCCACCACAUGAUGAUGCCUGAAGAGCCUUGGUUUUUUG

Variants of: B1
Assay: polymerase ribozyme fitness, log enrichment relative to wild type (log ratio); higher = more active; in vitro selection for triplet polymerase activity
Outline: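 Only genotypes with ≥10 input reads and ≥1 read per output were kept after Illumina sequencing of input and output libraries. These libraries were PCR-built, transcribed mutants of each subunit of a heterodimeric triplet polymerase ribozyme, each put through one triplicate in vitro selection round with frozen incubation at −7 °C, gel excision of extended constructs, streptavidin-bead capture and RT-PCR. Fitness is a logarithmic ratio of genotype enrichment to wild-type enrichment, from inverse-variance-weighted replicate averages, with the logarithm in base 2.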

| Variant | polymerase ribozyme fitness (log ratio) |
| --- | --- |
| C11U U106A G110C C123U | -2.46 |
| G36A A84C G117A | -2.24 |
| C70A C88U | -1.26 |
| C4G G42A | -3.06 |
| C76A U78A A118U | 0.066 |
| G10U U55G A111C | -0.134 |
| G61A U133A | -0.418 |
| G19A G48U C53G G58U U59A | -3.69 |
| A6C U78C A100U G120A U131C | -0.187 |
| U7C A16G C70A C94U C104U U112A | -1.32 |
| A41C C70G | -3.91 |
| G60A C64G G69U U132A | -0.296 |
| A24G C49A G65C C70A G113U | -6.47 |
| G63C G117U G120A | -2.53 |
| C13A U112G A121G | -1.42 |
| G45A U106A A111G | -1.55 |
| U9A G19U A46U C56G U133G | -4.95 |
| G58C C70U G110C A121U | -5.63 |
| G35U A100U | -5.66 |
| G45A A50G G93C | -1.62 |
| G52U U125G | -1.12 |
| G60A A118U U126A | -2.3 |
| G19A U78C C124A U129C | -1.77 |
| C12U C28G | -1.98 |

| Variant | polymerase ribozyme fitness (log ratio) |
| --- | --- |
| A5C C13U A84C U131A | -2.02 |
| A46U C56G G61U A105U C123U | -5.93 |
| C70U C97U U106A G127U | -1.69 |
| G45U U130G | -2.66 |
| A84G G120A | -0.185 |
| A6G G71A G120C | 0.128 |
| U9C A29U G61A C88U C102U | -4.47 |
| C56U C114U | -1.71 |
| U9G G61C C102A G122A U125A | -4.92 |
| C11G A50U A66G U87C C115U A118C | -6.65 |
| G39A G69C C124U | -0.485 |
| U21C G35C C73G A83C | -5.87 |
| G44A C49U U106C | -2.86 |
| A50U U54C C73A A95C | -1.37 |
| A43U C49U U59C C70U C115U | -5.6 |
| C53G C80G | -3.16 |
| G39U G51A | -3.64 |
| C11G G117A | -0.219 |
| A5G U54G G69U | -0.999 |
| C49G G60C A119U U133A | -2.93 |
| A50U C64U C70U | -5.2 |
| C56G A100U | -0.785 |
| A43U C49G | -3.61 |
| G71U A83U | -0.358 |

| Variant | polymerase ribozyme fitness (log ratio) |
| --- | --- |
| C40U G69C U78A G110A | -5.28 |
| C15G C56G U87G U112G G113A C123G G135A | -3.08 |
| C12A A84U A95C G135C | -1.09 |
| A5G G47U C62A G71C | -1.95 |
| A5U A18C G57U C72U | -2.48 |
| A16G U92G C98G C114A | -6.53 |
| U14A C70G | -3.97 |
| A41U U87A | -1.14 |
| G93C C104A A118U | -1.82 |
| A50C G61U C79G U129C | -2.24 |
| G19C A84G | -3.14 |
| C8U A50U C104U C123U | 1.14 |
| G48A C73U C82G | -0.747 |
| G39U U92C | -1.97 |
| C49A C56U | 0.0901 |
| C11G G47U | -0.345 |
| G60A A91U | -1.09 |
| C12U C72U U81G | -3.47 |
| A27U C85A C86A C101G | -5.15 |
| C72G U109A C123A | -5.46 |
| C11G C49A G52U U131A | -1.34 |
| A24G G52A | -1.78 |
| C12A A111G | 0.3 |
| U38G C56U U81A U131C | -2.23 |

| Variant | polymerase ribozyme fitness (log ratio) |
| --- | --- |
| G10A U129A | -1.14 |
| C15A G120C | -0.2 |
| C80A G113A G135A | -3.66 |
| G77U C101G | -1.96 |
| U33A G36C C72U | -4.02 |
| C70A C123A | -0.557 |
| G48A U59A | -0.703 |
| A37U G51U G77A A91U | -6.95 |
| C8U C22G U33A A50C G57U G120U | -4.54 |
| G110U G135C | -1.54 |
| C3G C8G C12U C79U G110C U130A | -5.96 |
| A2C A37U C56G G69A U78G G120U | -5.2 |
| G47A G127C | -2.06 |
| C40U G42A C114U | -1.92 |
| C8U G69U C115A | 1.59 |
| A50U U106A | -0.951 |
| A18C C53U A121U | -0.907 |
| A74U G113A U129A | -1.94 |
| C15G C88G G120C | -1.47 |
| C79U G110C | -2.71 |
| G61U A103C | -5.47 |
| A6U G19A | -2.37 |
| C4G C40U | -1.78 |
| C53A C56U | -0.113 |

| Variant | polymerase ribozyme fitness (log ratio) |
| --- | --- |
| C11A G69U C94U U130A | -1.6 |
| G44A G47U U78C G110A | -3.74 |
| G61A C89G C101G A121G | -0.932 |
| C40A G63A | -2.68 |
| C12G G44U A90C A121U | 0.668 |
| C11G G71A U106G | -2.48 |
| G42C C88G | -3.51 |
| C15U A29U C40A A46C | -5.8 |
| A37G G117C | -2.52 |
| C28U C62U G69U | -1.04 |
| C4A C15G G47U C64U C115G A119U G120U G135U | -7.19 |
| C53U C70U A74G G113C | -4.41 |
| C3G G17A G120C | -5.46 |
| G61A U130C | 0.204 |
| C40G G63A U92G | -3.61 |
| A43C U112A G127C | -2.51 |
| A46G C53A C56U | -0.0153 |
| C73U A83U C104A G110U | -4.18 |
| C8U U14G G17A A119G | -0.996 |
| G10A C114G G135A | -3.42 |
| C3A G42U G48U G52U C64U C86U G113U U133G | -7.08 |
| C12A C72U A100U | -2.13 |
| G45A A103C U106A C115G | -5.5 |
| G69A U132C | -2.86 |

| Variant | polymerase ribozyme fitness (log ratio) |
| --- | --- |
| C12U G47U C85U U129G | -3.07 |
| C86U U131G | -0.498 |
| A6G C13A G17A A95G | -3.46 |
| A5U A41G U55A C70G | -3.9 |
| C82G G120U | -0.592 |
| G42A C82A U87A G93C C124G | -1.42 |
| C13A C53G U54A G117C | -4.98 |
| C70G G113U | -4.42 |
| A6U C80A A95U G120A U130G | -3.72 |
| G48A C82G | -0.457 |
| A118U G120U | -0.245 |
| C70A U130C | -2.15 |
| C89G U109G | -5.16 |
| C94U | -0.383 |
| G19U C101A | -4.08 |
| U55G C70G A100C | -3.29 |
| A27C C49U | -4.08 |
| A16C C49U G60U U78A | -3.42 |
| A41G C99U C124A | -2.72 |
| G17U G63A U81A G110C | -6.98 |
| A118U C123U | -0.82 |
| G10U A37U | -0.888 |
| G60U G93C C104A G113C | -4.47 |
| A26U U59A G63A | -5.57 |

| Variant | polymerase ribozyme fitness (log ratio) |
| --- | --- |
| U59G G71A | -3.25 |
| A18C C56G C72U | -1.24 |
| G69A C85A | -4.3 |
| C72U C104A G120A G122U U131A | -1.54 |
| C89A C101A G117A | -5 |
| U55G G61U C114U | -1.66 |
| G71U U81G | -4.34 |
| C20U U112A | 0.887 |
| A46U G127U | -2.62 |
| A37G C94G | -2.1 |
| A27U G61A C86U | -2.19 |
| C15A G23U C72G C98A C114G U116A | -7.66 |
| C11U A16C G93C | -4.45 |
| A41C G48A G60A C86U U96G | -3.39 |
| C11G A27C G113C G127C | -5.64 |
| G36A G48U G63U C79G | -5.18 |
| C62U A83G | -1.18 |
| U54G G63A G69U U78G C102A U106G G120C | -6.62 |
| C56U A83U | 0.108 |
| G47A G60C G69U A119U | -2.55 |
| A18U G61C G120A | -4.67 |
| A2G C13U | 0.291 |
| A5U C11A C115G | -6.5 |
